Laboratory results: patent US20160137740A1 (AstraZeneca / MedImmune, published 2016)
Positions count from the first letter of the chain named. “And” between values parts separate entries of the source, which are not always exact repeats. Identical values can stand only once.

Columns and labels:
Human OX40 [1] = target: T1, Human OX40 (human, UniProt P43489 29-277); experiment: flow cytometry, equilibrium binding to activated primary human CD4+ T cells; apparent Kd, mean of 6 donors (StdErr)
T1 construct: also called CD134; TNFRSF4
T1 sequence: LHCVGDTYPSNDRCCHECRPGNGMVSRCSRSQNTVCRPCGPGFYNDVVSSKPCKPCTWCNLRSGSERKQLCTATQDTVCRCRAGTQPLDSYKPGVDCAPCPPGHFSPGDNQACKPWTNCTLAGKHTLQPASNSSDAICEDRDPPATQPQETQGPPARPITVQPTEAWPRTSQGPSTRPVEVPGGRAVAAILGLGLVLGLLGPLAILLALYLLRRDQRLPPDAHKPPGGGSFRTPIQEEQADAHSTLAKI
Experimental: (§1) OX40mAb24 (10 μg/mL) or 9B12 (10 μg/mL) was diluted over a 17 point 2-fold dilution series. OX40mAb24 was added to 100,000 cells (activated primary CD4⁺ T cells or human OX40-overexpressing Jurkat NFkB-luciferase clone 64 cells) per well and incubated for one hour at 4° C. For background binding subtraction, cells were incubated in the presence of secondary antibody alone. […] Following secondary antibody incubation, cells were washed and suspended in 100 μL FACS buffer for flow cytometry analysis on a BD LSRII flow cytometer as described below.

Human OX40 [2] = target: T1, Human OX40; experiment: cell-based or functional assay
Human OX40 [3] = target: T1, Human OX40; experiment: cell-based or functional assay; remark: listed apart in the source
[4] = target: T2, KO_L116+A126 (human OX40 aa Leu116 and Ala126 replaced with the mouse counterparts) (human, UniProt P43489 29-277); experiment: flow cytometry, transfected 293F cells, column KO_L116A126 [FIGURE 32B con't]
T2 construct: Variant with a transmembrane domain, transient on 293F cells
T2 chain: T1 sequence with L88Q, A98V
Experimental: Forty-eight hours after transfection, HEK293F cells were incubated with 1 μg/mL of OX40mAb24 for 1 hour on ice in PBS. To detect bound OX40mAb24 by flow cytometry, the cells were washed 3-times with cold PBS, incubated with 1 μg/mL of Alexa480-conjugated anti-human IgG antibody for 1 hr on ice, and then analyzed using the LSRII flow cytometer.
The expression levels of all chimeric OX40 variants were also monitored by flow cytometry; the cells were incubated with a mixture of sheep anti-human OX40 and goat anti-mouse OX40 polyclonal antibodies at 1 μg/mL in PBS for 1 hour on ice. Cells were washed 3-times with cold PBS, and then incubated with a mixture of Alexa480-conjugated anti-goat and anti-sheep IgG polyclonal antibodies. After washing 3 times with cold PBS, cells were analyzed with the LSRII flow cytometer.

Rhesus monkey OX40 = target: T3, Rhesus monkey OX40 (rhesus monkey); experiment: flow cytometry, equilibrium binding to activated primary rhesus CD4+ T cells; mean of 2 experiments (StdErr)
T3 construct: also called rhesus macaque OX40

Human OX40 [5] = target: T1, Human OX40; experiment: cell-based or functional assay; remark: listed apart in the source
Human OX40 [6] = target: T1, Human OX40; experiment: flow cytometry on activated primary human CD4+ T cells, AlexaFluor 488 anti-mouse IgG secondary [FIGURE 2A-D, con't.), panel C]
Experimental: as §1

[7] = target: T4, Recombinant human TNFRSF1β (TNFRII) (human, UniProt P20333 23-257); experiment: ELISA, plate coated with a dilution series of the recombinant TNFRSF protein [panel B]
T4 construct: Plate-adsorbed antigen of the ELISA; also called TNFR2; TNFRSF1B
T4 sequence (looked up): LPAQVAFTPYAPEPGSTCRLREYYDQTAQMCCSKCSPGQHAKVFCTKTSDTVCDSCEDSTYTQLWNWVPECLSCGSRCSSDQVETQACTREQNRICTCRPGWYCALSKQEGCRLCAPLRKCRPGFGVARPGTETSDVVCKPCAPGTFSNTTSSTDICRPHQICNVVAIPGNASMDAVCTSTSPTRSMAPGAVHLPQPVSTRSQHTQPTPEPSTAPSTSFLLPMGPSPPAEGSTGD
Experimental: An eight point, two-fold dilution series of each recombinant human TNFRSF protein was prepared after dilution of stock proteins to 5 μg/mL in PBS. Subsequently, 50 μL of each antigen dilution was transferred in duplicate to wells of a Nunc 96-well MaxiSorp flat bottom plate, and incubated overnight at 4° C. to adsorb proteins to the plate. Afterwards, plates were washed three times with PBS in a BioTek® plate washer to remove unbound protein. Anti OX40 mAb29, 9B12, and control antibodies were diluted in PBS to a final concentration of 10 μg/mL, and 50 μL of mAb were added to each well and incubated at room temperature for one hour to bind mAb to plate-bound protein. Thereafter, wells were washed with PBS/Tween-20 0.1% (volume/volume) using a BioTek® plate washer. HRP conjugated goat anti-human or goat anti-mouse secondary antibodies at 10 μg/mL was added to each well and incubated at room temperature for 1 hour. After three washes in PBS/Tween-20 0.1%, 50 μL of TMB substrate was added to each well and incubated at room temperature for 5 minutes to develop the colorimetric product. Reactions were stopped by adding 50 μL of 0.5 molar H₂SO₄ to wells, and plates read immediately at 450 nm using an Envision C plate reader for detection of the colorimetric product.

Human OX40 [8] = target: T1, Human OX40; experiment: cell-based or functional assay; remark: listed apart in the source

B1: 9B12 (antibody, mouse IgG1, V domains shown)
VH: EVQLQESGPSLVKPSQTLSLTCSVTGDSFTSGYWNWIRKFPGNRLEYMGYISYNGITYHNPSLKSRISITRDTSKNHYYLQLNSVTTEDTATYFCARYRYDYDGGHAMDYWGQGTLVTVSS
VL: DIQMTQTTSSLSASLGDRVTISCRASQDISNYLNWYQQKPDGTVKLLIYYTSKLHSGVPSRFSGSGSRTDYSLTITDLDQEDIATYFCQQGSALPWTFGQGTKVEIKR
notes: mouse IgG1 kappa; also called murine mAb 9B12; mouse anti-human OX40 IgG1κ monoclonal antibody
Kd (Human OX40 [1]): 0.669 nM | EC50, CD4+ T cell proliferation, donor 367 (Human OX40 [2]): 0.156 nM | EC50, CD4+ T cell proliferation, donor 645 (Human OX40 [2]): 0.169 nM | EC50, CD4+ T cell proliferation, donor 651 (Human OX40 [2]): 0.309 nM | EC50, CD4+ T cell proliferation, donor 661 (Human OX40 [2]): 0.237 nM | EC50, TNFα release, donor 645 (Human OX40 [3]): 0.67 nM | EC50, TNFα release, donor 651 (Human OX40 [3]): 0.764 nM | binding result [4]: no binding | Kd (Rhesus monkey OX40): 0.713 nM | EC50, NFκB-luciferase 2-cell assay, exp 1, Raji (Human OX40 [5]): 9.28 nM | EC50, NFκB-luciferase 2-cell assay, exp 2, CD32A-expressing HEK (Human OX40 [5]): 0.338 nM | EC50, NFκB-luciferase 2-cell assay, exp 3, CD32A-expressing HEK (Human OX40 [5]): 0.225 nM | EC50, NFκB-luciferase 2-cell assay, exp 4, Raji (Human OX40 [5]): 5.04 nM | EC50, NFκB-luciferase 2-cell assay, exp 5, CD32B-expressing HEK (Human OX40 [5]): 0.726 nM | EC50, NFκB-luciferase 2-cell assay, exp 6, Raji (Human OX40 [5]): 2.7 nM | EC50, NFκB-luciferase 2-cell assay, exp 7, CD32B-expressing HEK (Human OX40 [5]): 1.77 nM | EC50, NFκB-luciferase 2-cell assay, exp 8, CD32B-expressing HEK (Human OX40 [5]): 1.34 nM | EC50, NFκB-luciferase 2-cell assay, exp 9, Raji (Human OX40 [5]): 3.07 nM | EC50, NFκB-luciferase 2-cell assay, exp 10, Raji (Human OX40 [5]): 3.33 nM | EC50, NFκB-luciferase 2-cell assay, exp 11, CD32B-expressing HEK (Human OX40 [5]): 2.36 nM | EC50, NFκB-luciferase 2-cell assay, exp 12, CD45+ cells, NSCLC (Human OX40 [5]): 0.223 nM | EC50, NFκB-luciferase 2-cell assay, exp 15, CD45+ cells, RCC (Human OX40 [5]): 2.42 nM | EC50 (read off the curve) (Human OX40 [6]): ~1 nM and ~0.5 nM | binding result [7]: no binding | EC50, IFNγ release, donor 645 (Human OX40 [8]): 2.38 nM | EC50, IFNγ release, donor 651 (Human OX40 [8]): 0.758 nM
